{
  "source": "patent US10143747B2",
  "about": "“Breast cancer therapeutics” (IMBA—INSTITUT FÜR MOLEKULARE BIOTECHNOLOGIE GMBH, priority 2010, dated 2018)",
  "type_in_all_cases": "cell-based",
  "key": {"[1]": {"test_system": "human breast cancer cells as well as cultured MECs", "assay": "RANKL mRNA expression in human breast cancer cells and cultured MECs after MPA stimulation in vitro", "conditions": "MPA 0.1 μM", "procedure": "a, Analysis of RANKL mRNA expression in human breast cancer cells as well as cultured MECs after MPA stimulation (0.1 μM). Expression was determined by qRT-PCR in unstimulated cells or cells stimulated with MPA for the indicated time points. […] Data were obtained by qRT-PCR and are shown as fold change compared to MCF10A (b) and purified primary MECs (c) (+/−sem) (n=3).\nMPA (medroxyprogesterone acetate, a representive progestin) pellets were implanted into female mice and RANKL expression was assayed. […] Since MPA can induce transcription of prolactin and the prolactin receptor in breast cancer cells and prolactin can directly induce RANKL via Jak2/Stat5 signaling, it was tested whether MPA induces RANKL in the mammary gland of prolactin receptor knock-out mice."}, "[2]": {"test_system": "human SKBR3 breast cancer cells", "assay": "Soft-Agar Colony Formation Assay (anchorage-independent growth)", "conditions": "RANKL 1 μg/ml", "procedure": "a, Western blotting for phosphorylated (P) IKKα, total IKKα, phosphorylated (P) p65 NFκB, total p65 NFκB, phosphorylated (P) IκBα, and total IκBα in isolated primary mouse mammary gland epithelial cells (MECs) in response to RANKL stimulation (1 μg/ml). β-actin is shown as loading control. b, Western blotting for IKKα, IKKβ, IKKγ, phosphorylated (P) p65 NFκB, total p65 NFκB, phosphorylated (P) IκBα, and total IκBα in pooled late stage mammary adenocarconimas (n=4 for each lane) that developed in control, RANK^Δmam and IKKΔ^Δmam females. β-actin is shown as loading control c, Expression of RANK, CyclinD1, and p21 mRNA in late stage mammary adenocacinomas that developed in control, RANK^Δmam, and IKKα^Δmam females. Expression was determined by qRT-PCR. Data are mean values+/−sem. n=4 per group. d, Soft-Agar Colony Formation Assay. Growth of human SKBR3 breast cancer cells in soft agar in response to stimulation with RANKL (1 μg/ml) or EGF (100 ng/ml). Anchorage-independent, macroscopic colonies formed after 18 days in culture with RANKL, which was prevented by the decoy receptor OPG (1 μg/ml). […] Apoptosis was detected by immunostaining for active Caspase 3. f, Apoptotic nuclei of epithelial cells (arrows) are shown for representative mammary gland sections. Magnifications×40. g, Quantification of mammary epithelial apoptosis. A minimum of 5000 nuclei was counted for each mouse. […]"}, "[3]": {"test_system": "primary mouse mammary epithelial cells", "assay": "DNA damage responses (cell cycle arrest, apoptosis) in primary mouse mammary epithelial cells", "conditions": "RANKL 1 μg/ml", "procedure": "a, Western Blot analysis for γH2AX, phosphorylated (P) Chk1, total Chk1, p53 and β-actin in isolated primary mouse mammary gland epithelial cells in response to γ-irradiation (2 Gray) in the presence (1 μg/ml) or absence of RANKL stimulation. b,c, FACS analysis of propidium iodide (PI) stained b, mammary epithelial cells and c, SKBR3 human breast cancer cells after γ-irradiation (2 Gray) in the absence or presence (1 μg/ml) of RANKL. Data are representative of at least 3 experiments. Apoptotic cells with a DNA content <2n appear in the sub-G1 region. Percent of cells in sub-G1 (M1), G1-phase (M2), S/G2/M-phase (M3) as well as polyploid cells with a DNA content >4n are given for the indicated time points.\na,b, FACS analysis of a, mammary epithelial cells and b, SKBR3 human breast cancer cells incubated with the genotoxic agent doxorubicin (Dox, 1 μM) in the presence (1 μg/ml) or absence of RANKL. Data are representative of at least 3 experiments. Percent of cells in sub-G1 (M1), G1-phase (M2), S/G2/M-phase (M3) as well as polyploid cells with a DNA content >4n are given for 24 and 36 hours after doxorubicin treatment. c, mRNA expression of pro-apoptotic genes Bim, Puma, and Noxa 6 hours after γ-irradiation (2 Gray) in the presence (1 μg/ml) or absence of RANKL stimulation. Data are shown as fold change compared to control (+/−sem). n=3). *P<0.05; **P<0.005 (Student's t-test).\nFor measurement of cell cycle arrest and apoptosis primary mouse mammary epithelial cells and SKBR3 human breast cancer cells were seeded at a cell-density of 100000 cells/well in a 6-well plate and allowed to grow for 24 hours. Cells where then treated with doxorubicin (1 μM) or γ-irradiation (2 Gray) in the absence or presence of recombinant RANKL (1 μg/ml). Cell cycle arrest and numbers of dead cells were determined using propidium iodine staining. To determine in vivo mammary gland epithelial cell death, control and RANK^Δmam littermate females were γ-irradiated with a total dose of 5 Gray (Gy). Six hours later, mammary glands were isolated and immunostained for active Caspase 3 (Cell Signaling) indicative of apoptosis."}},
  "data": [
    {"molecule": "CC(=O)O[C@]1(C(C)=O)CC[C@H]2[C@@H]3C[C@H](C)C4=CC(=O)CC[C@]4(C)[C@H]3CC[C@@]21C", "note": "[MPA, medroxyprogesterone acetate]", "values": [
      {"measurement": "RANKL mRNA induction in SKBR3 cells", "setting": "[1]", "result": "only slightly increased"}
    ]},
    {"molecule": "RANKL: recombinant RANKL protein, ligand of RANK, used as stimulus (1 μg/ml or 1 μg i.p.) (protein, UniProt O35235 139-316, looked up) Tumor necrosis factor ligand …: FSGAPAMMEGSWLDVAQRGKPEAQPFAHLTINAASIPSGSHKVTLSSWYHDRGWAKISNMTLSNGKLRVNQDGFYYLYANICFRHHETSGSVPTDYLQLMVYVVKTSIKIPSSHNLMKGGSTKNWSGNSEFHFYSINVGGFFKLRAGEEISIQVSNPSLLDPDQDATYFGAFKVQDID", "values": [
      {"measurement": "growth of SKBR3 cells in soft agar", "setting": "[2]", "result": "induced growth of SKBR3 cells in soft agar"},
      {"measurement": "γ-irradiation-induced upregulation of proapoptotic Bim, Puma and Noxa mRNA", "setting": "[3]; 6 hours after γ-irradiation 2 Gray, cell type not stated", "result": "did not occur in the presence of RANKL"},
      {"measurement": "early cell cycle arrest after DNA damage", "setting": "[3]; doxorubicin 1 μM", "result": "did not alter the early cell cycle arrest"},
      {"measurement": "protection from cell death", "setting": "[3]; doxorubicin 1 μM", "result": "marked protection from cell death"},
      {"measurement": "early cell cycle arrest after DNA damage", "setting": "[3]; γ-irradiation 2 Gray", "result": "did not alter the early cell cycle arrest"},
      {"measurement": "induction of γH2AX and p53, activation of Chk1 (DNA damage response markers)", "setting": "[3]; γ-irradiation 2 Gray", "result": "did not alter induction of γH2AX and p53 or activation of Chk1"},
      {"measurement": "protection from cell death", "setting": "[3]; γ-irradiation 2 Gray", "result": "marked protection from cell death"}
    ]}
  ]
}
